Laboratory results taken from IntAct's records for PubMed 22164283.

target: tbxt_mouse Tbxt (UniProt P20293)
Sequence (P20293 whole entry): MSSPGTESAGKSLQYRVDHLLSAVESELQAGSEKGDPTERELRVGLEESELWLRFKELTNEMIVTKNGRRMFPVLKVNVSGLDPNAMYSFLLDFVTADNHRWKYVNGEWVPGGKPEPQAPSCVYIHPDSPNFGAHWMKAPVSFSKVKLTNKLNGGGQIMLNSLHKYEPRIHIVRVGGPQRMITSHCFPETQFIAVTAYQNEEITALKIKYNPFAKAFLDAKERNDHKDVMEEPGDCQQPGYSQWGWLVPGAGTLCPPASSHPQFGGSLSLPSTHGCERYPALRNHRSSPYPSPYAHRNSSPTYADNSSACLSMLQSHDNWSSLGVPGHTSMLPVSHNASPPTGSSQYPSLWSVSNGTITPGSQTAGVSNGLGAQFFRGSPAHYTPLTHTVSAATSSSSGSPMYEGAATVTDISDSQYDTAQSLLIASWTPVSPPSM

Chain of Homeobox protein MIXL1 (Mus musculus), Q9WUI0 P126I (Q9WUI0 whole entry P126I): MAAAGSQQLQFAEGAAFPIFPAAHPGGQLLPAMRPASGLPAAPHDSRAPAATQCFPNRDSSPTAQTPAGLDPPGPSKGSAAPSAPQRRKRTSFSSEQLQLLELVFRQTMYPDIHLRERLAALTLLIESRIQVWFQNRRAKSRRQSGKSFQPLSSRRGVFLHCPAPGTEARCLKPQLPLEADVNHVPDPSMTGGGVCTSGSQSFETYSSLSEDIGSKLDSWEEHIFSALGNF
Chain of Homeobox protein MIXL1 (Mus musculus), Q9WUI0 I113R (Q9WUI0 whole entry I113R): as the sequence (Q9WUI0 whole entry P126I) above, with I113R, I126P counted along it
Chain of Homeobox protein MIXL1 (Mus musculus), Q9WUI0 R143I (Q9WUI0 whole entry R143I): as the sequence (Q9WUI0 whole entry P126I) above, with I126P, R143I counted along it
Chain of Homeobox protein MIXL1 (Mus musculus), Q9WUI0 V132A (Q9WUI0 whole entry V132A): as the sequence (Q9WUI0 whole entry P126I) above, with I126P, V132A counted along it

Row | Substance | effect of a mutation on the interaction
1 | Homeobox protein MIXL1 (Mus musculus), Q9WUI0 I113R | with no effect
2 | Homeobox protein MIXL1 (Mus musculus), Q9WUI0 P126I | decreasing interaction strength
3 | Homeobox protein MIXL1 (Mus musculus), Q9WUI0 R143I | with no effect
4 | Homeobox protein MIXL1 (Mus musculus), Q9WUI0 V132A | with no effect
